Measured values: patent US7906616B2, “Truncated DANCE, DANCE complex and method of using these” (Kansai Medical University, priority 2004, dated 2011)

What was measured:
human DANCE = molecular target: T1, human DANCE (Homo sapiens, UniProt Q9UBX5); test: In vitro binding assay, FLAG-tagged DANCE constructs with Myc-tagged DANCE; details: protein solutions from 293T cells mixed on ice 1 hour, anti-FLAG precipitation, anti-Myc detection
T1 construct: Myc; expressed in transfected cells; host or cells: 293T cells; culture supernatant mixed with cell extract
T1 sequence (Q9UBX5 24-448): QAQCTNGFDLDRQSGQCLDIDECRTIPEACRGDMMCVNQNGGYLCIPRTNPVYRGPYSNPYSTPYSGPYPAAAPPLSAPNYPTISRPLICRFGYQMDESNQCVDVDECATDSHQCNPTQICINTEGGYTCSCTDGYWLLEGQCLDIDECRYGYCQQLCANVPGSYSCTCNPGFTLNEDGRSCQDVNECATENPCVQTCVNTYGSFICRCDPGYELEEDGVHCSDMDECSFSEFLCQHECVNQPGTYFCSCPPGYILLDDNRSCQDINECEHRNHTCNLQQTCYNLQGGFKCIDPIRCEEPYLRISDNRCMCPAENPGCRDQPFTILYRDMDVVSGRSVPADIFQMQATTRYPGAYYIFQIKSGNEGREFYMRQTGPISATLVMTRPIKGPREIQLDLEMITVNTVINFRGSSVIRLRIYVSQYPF
Protocol: (§1) These were performed by methods described in “Molecular Cloning, 3rd Ed.”.
(§2) A human DANCE construct with FLAG tag (FIG. 8), a human DANCE construct with Myc tag, and a human LTBP2 construct were separately transfected to 293T cells. After cultivation in serum-free medium for 48 hours, each culture supernatant and cell extract were mixed, and this was used as the protein solution. A protein solution from the DANCE construct with FLAG tag and a protein solution from DANCE or LTBP2 with Myc tag were mixed on ice for 1 hour, and precipitated with anti-FLAG antibody, and the resulting precipitate was developed by SDS-PAGE, and detected using anti-Myc antibody or anti-FLAG antibody.

human LTBP2 = molecular target: T2, human LTBP2 (Homo sapiens, UniProt Q14767); test: In vitro binding assay, FLAG-tagged DANCE constructs with Myc-tagged LTBP2; details: protein solutions from 293T cells mixed on ice 1 hour, anti-FLAG precipitation, anti-Myc detection
T2 construct: The portion from the 36th amino acid to the stop codon of human LTBP2; expressed in transfected cells; host or cells: 293T cells; culture supernatant mixed with cell extract
Protocol: as §1, §2

[1] = tested on: vascular endothelial cells; test: Vascular endothelial cell adhesion assay; assay type: cell-based
Source text: Full-length DANCE promotes the adhesion and extension of vascular endothelial cells via cell surface integrin. The present inventor has reported to date that full-length DANCE can serve as a ligand for the integrins αvβ3, αvβ5, and α9β1. Since the domain serving as the ligand is considered to be around the RGD motif of the amino-terminal domain of DANCE, each recombinant protein of a DANCE mutant wherein RGD was replaced with RGE for one-amino-acid substitution (RGE DANCE), and amino-terminal cleaved form of DANCE (ΔND DANCE) were purified, and these, along with full-length DANCE, were subjected to vascular endothelial cell adhesion assay (FIG. 13).

human skin fibroblasts = test: Formation of elastic fibers in cultured human skin fibroblasts; assay type: cell-based; details: protein added to serum-free medium at 4 μg/ml, cultured for 2 weeks
Protocol: Human fibroblasts were kindly supplied by the Department of Plastic Surgery, Kyoto University Hospital. A cover glass was placed on the bottom of a 24-well plate, on which human fibroblasts were seeded at 7.5×10^4 cells per well, and cultured in a DMEM medium supplemented with 10% FBS at 37° C. in the presence of 5% CO2. After the plate washed with PBS on Day 3, the medium was exchanged with a DMEM/F12 medium not supplemented with FBS, and purified DANCE protein, cleaved form of DANCE protein 4 μg/ml, or FBS was added. Cultivation was continued at 37° C. in the presence of 5% CO2, and the cells were fixed and immunologically stained on Day 14.
On Day 14 of cultivation, the cells were washed with 1 ml of PBS three times, after which they were fixed with 100% methanol at −20° C. for 30 minutes. After washing with PBS, the cells were subjected to blocking with a PBS containing 2% BSA at room temperature for 30 minutes, after which the cells were incubated with the polyclonal anti-elastin antibody (dilution rate 1/100) and the monoclonal anti-FLAG antibody (dilution rate 1/100) at room temperature for at least 1 hour. The cells were washed with PBS and further incubated with the anti-rabbit Alexa Fluor 488 antibody (dilution rate 1/100) and the anti-mouse Alexa Fluor 546 antibody (dilution rate 1/100) at room temperature for 1 hour. After washing with PBS, the cells were fixed with 4% para-formaldehyde at room temperature for 10 minutes and again washed with PBS, after which the sample was mounted onto a glass slide using a DAPI-containing Vectashield. Examination was performed using a confocal microscope.
Human skin fibroblasts were seeded to reach confluency; the medium was replaced with serum-free medium or a medium containing 10% fetal calf serum; the cells were cultured for 2 weeks; the formation of elastic fibers was analyzed by immunostaining with anti-elastin antibody.

T2 sequence (Q14767 36-1821): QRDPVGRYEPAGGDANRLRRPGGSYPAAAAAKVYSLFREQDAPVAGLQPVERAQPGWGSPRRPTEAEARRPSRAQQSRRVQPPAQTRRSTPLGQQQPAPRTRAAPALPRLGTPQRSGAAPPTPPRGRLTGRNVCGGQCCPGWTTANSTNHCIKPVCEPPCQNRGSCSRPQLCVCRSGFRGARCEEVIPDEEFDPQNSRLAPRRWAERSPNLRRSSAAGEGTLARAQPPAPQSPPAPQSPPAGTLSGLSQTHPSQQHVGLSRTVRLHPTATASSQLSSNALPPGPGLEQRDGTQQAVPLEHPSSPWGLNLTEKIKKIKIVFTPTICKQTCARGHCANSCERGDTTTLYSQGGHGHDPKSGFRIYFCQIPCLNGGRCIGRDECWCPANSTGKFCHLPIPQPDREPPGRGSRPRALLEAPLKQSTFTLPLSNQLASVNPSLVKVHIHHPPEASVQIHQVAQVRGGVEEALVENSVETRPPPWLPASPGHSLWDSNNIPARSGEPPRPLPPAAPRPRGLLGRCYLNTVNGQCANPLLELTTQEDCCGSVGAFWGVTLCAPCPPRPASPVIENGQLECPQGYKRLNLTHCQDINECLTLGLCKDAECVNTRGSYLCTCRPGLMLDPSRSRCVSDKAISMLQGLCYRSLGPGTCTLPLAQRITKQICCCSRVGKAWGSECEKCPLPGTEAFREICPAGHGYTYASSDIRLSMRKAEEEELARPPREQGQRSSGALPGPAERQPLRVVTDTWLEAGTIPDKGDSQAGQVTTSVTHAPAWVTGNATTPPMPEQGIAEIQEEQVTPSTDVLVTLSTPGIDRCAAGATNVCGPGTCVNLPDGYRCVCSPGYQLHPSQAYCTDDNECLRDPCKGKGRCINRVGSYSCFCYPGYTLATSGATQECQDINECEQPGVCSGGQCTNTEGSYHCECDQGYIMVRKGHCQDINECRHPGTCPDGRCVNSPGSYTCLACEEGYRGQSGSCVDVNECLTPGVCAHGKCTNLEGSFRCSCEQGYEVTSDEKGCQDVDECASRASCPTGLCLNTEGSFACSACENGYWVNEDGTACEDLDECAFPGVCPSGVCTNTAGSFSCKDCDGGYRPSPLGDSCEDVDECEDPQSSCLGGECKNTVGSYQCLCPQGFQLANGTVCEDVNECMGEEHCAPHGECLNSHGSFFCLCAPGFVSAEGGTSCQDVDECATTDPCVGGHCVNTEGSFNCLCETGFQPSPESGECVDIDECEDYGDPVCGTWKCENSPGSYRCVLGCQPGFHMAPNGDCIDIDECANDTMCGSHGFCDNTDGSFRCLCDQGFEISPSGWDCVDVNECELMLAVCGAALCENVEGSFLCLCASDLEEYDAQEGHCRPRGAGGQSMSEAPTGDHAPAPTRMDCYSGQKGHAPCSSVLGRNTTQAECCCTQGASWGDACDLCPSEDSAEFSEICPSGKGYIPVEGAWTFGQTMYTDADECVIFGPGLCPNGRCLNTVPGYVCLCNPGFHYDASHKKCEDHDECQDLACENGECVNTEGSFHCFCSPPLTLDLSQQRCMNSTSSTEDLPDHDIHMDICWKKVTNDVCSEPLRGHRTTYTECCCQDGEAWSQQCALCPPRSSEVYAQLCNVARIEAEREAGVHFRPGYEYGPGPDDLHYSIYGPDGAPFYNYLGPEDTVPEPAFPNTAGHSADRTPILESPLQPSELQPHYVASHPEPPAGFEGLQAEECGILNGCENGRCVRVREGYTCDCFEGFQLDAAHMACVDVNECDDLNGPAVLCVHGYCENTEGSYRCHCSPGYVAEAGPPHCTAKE

B1: ΔND DANCE: amino-terminal cleaved form of DANCE; 78th to 448th amino acids of SEQ ID NO:2 (SEQ ID NO:8) (protein, listed as Homo sapiens)
chain: GPYSNPYSTPYSGPYPAAAPPLSAPNYPTISRPLICRFGYQMDESNQCVDVDECATDSHQCNPTQICINTEGGYTCSCTDGYWLLEGQCLDIDECRYGYCQQLCANVPGSYSCTCNPGFTLNEDGRSCQDVNECATENPCVQTCVNTYGSFICRCDPGYELEEDGVHCSDMDECSFSEFLCQHECVNQPGTYFCSCPPGYILLDDNRSCQDINECEHRNHTCNLQQTCYNLQGGFKCIDPIRCEEPYLRISDNRCMCPAENPGCRDQPFTILYRDMDVVSGRSVPADIFQMQATTRYPGAYYIFQIKSGNEGREFYMRQTGPISATLVMTRPIKGPREIQLDLEMITVNTVINFRGSSVIRLRIYVSQYPF
binding of DANCE to each other (human DANCE): no longer binds to each other
binding of DANCE to LTBP2 (human LTBP2): stronger binding with LTBP2 than full-length DANCE
binding to cell surface integrin ([1]; discussion statement): no longer binds to cell surface integrin
cell adhesion activity ([1]; purified recombinant protein used for coating): absolutely no cell adhesion activity
formation of elastic fibers (anti-elastin immunostaining) (human skin fibroblasts): the formation of elastic fibers was very little
